From the DeepSol protein solubility set

Test: soluble on expression in E. coli; label from the status in PepcDB or PDB records

Sequence | soluble on expression in E. coli
MGNCESRELVAQAKQNKIINTELDKAKKTDENIIKLLLLGAGESGKSTVLKQMKIIHNSGFSQEEISNKRNVVCANTVQAMGALLDGMKQLQFDFSTRVCNAHEKLIRETLNDKAEYGPFSDAMFNALTELWADKGVQCAYDKREFFYLHDSAKYFFDAIARVHTPNYVPTENDILHTRVPTMGVIEVNFTIKGKFFRVFDVGGQRSQRKKWIHCFDDAKAMIYVASLSEYDQVLLEDNTTNRMHESIQLFKQVINNKYFVNTSVILFLNKIDLFEEKIVTKKRSLGIAFESFSGPSQDLNAAVAFVEKKYRSMAENKEKNIYCHHTCATDTQQVQYVLDAVLDTILSTKLKGCGLY | not soluble
MKTAQEFRAGQVANINGAPWVIQKAEFNKSGRNAAVVKMKLKNLLTGAGTETVFKADDKLEPIILDRKEVTYSYFADPLYVFMDSEFNQYEIEKDDLEGVLTFIEDGMTDICEAVFYNDKVISVELPTTIVRQIAYTEPAVRGDTSGKVMKTARLNNGAELQVSAFCEIGDSIEIDTRTGEYKSRVKA | not soluble
MSLNSNHKQPIFDNVLNRKFQVNEPNRAYVSDMTYIPTHEGWLYLTVVIDLFSRKVVGWNMSSRMKADTVCDALTMAIWQRKPKAGLIVHSDRGSQYASKQYRSLLNQHGLVGSMSKKGDCWDNSVAESFFSRLKDELVHWRNYQTRREAKQDILDYMTMFYNNQRLHSSLDYLSPNQFENRYWGLMKKVAEGHHHHHH | soluble
SMQEKIMRELHVKPSIDPKQEIEDRVNFLKQYVKKTGAKGFVLGISGGQDSTLAGRLAQLAVESIREEGGDAQFIAVRLPHGTQQDEDDAQLALKFIKPDKSWKFDIKSTVSAFSDQYQQETGDQLTDFNKGNVKARTRMIAQYAIGGQEGLLVLGTDHAAEAVTGFFTKYGDGGADLLPLTGLTKRQGRTLLKELGAPERLYLKEPTADLLDEKPQQSDETELGISYDEIDDYLEGKEVSAKVSEALEKRYSMTEHKRQVPASMFDDWWK | soluble
SVHPALEFSDCYSDSPDFRERLKCYENELEKTNKFLKDVIKDGNNVINTFKEYSLAVQKFSQTLQSFQFDFIGDTLTDDEMNIAESFREFAGLLQDVEEARMMLVQNASDLLIKPLEKFRKEQIGVTKERRKKFEKESEKYYSQLDKHVNLSSKKKETQLQEADEQLDKERQAFYESSVEYVYQIQQVQEKKKFDVVEPVLAFLQSILTLNNLTVEMYTFRNKGTKCNTGEIPFQKVQFCTIQVDISTFMVHFCTFKLYFCTFKIP | soluble
MVLPPQNRLCNEVCLEAGQSPNSNELYLNSSELLKTELNNDINLCLVDFCERHNIDYRGMVNRLVTNNMYFFYIWGKYALSKA | not soluble
MGSDKIHHHHHHLEFWDGLSGGKAITPLKKEEIKHIEKQLGSRLPKSYLKKMEEQNGGDIAFNSVVVNFKNSWSDEETGLYLPLYEFMPLTIGKFVENTSVLNEWGLAGKKMIFGEGEGSYLWYFDFDENPKNPEVWCLDISDETAHLVAESFEALLPNLKKRANDDVLTHEDVFADYPSMCEIRETIKGTDEDARLEAYRMWLTRCEDLEGLIAELRQRVEHSDEEDELDSYAELLAEVLINYTSEEFMTYEEAIALFNKKEDVSDLSHVIVQLESEV | not soluble
MHATDQTFQILLSQLLEKVEDRCPECGSEQYVWQQKNKDGTERCAPTCWSCGYKMLKKHEQQANQQRSQESFMARTQKFFHQGSLIADDALRQCRLTNYQTTELETRQAKERALAAVSAIVEGKPIHVIFSGKPGVGKSHLAISILVEVLERSAYQKYCLFVSYSELLEKLKMSMNESAKSQAKAQAYITRMKKADVLVLDDLGAELGIKNKVSTDFNNDILNRILEARQNKATIFTTNFSGKQLVEAYGTRIISRLMKHANGYVFQYKDTTDKRMRSVKLEHHHHHH | not soluble
MGSDKIHHHHHHMENIVELINVTKTFKDFSINKMDLQVKKGFVTGFIGANGAGKSTTIKMMMNLLKPDDGEVKLFGMDYTTHEKAIKERIGFVYDGNVFFEGLNLKDIKHIVGPAYKRWDDTLFYQYVDKFELPLNKAIKTFSKGMQMKASLAIALSHHAELIIMDEPTAGLDPIFRRELLDILQELMIDNDRTIFFSTHITTDLDRIADYIAFMQGGNLVFNQSIHDIDENYALVKGGLDLLDKDTEKAFVHVRRASTGFEALTNNLSAVKNIFGDTVIIERATLEDIMYYMKGGVHYV | not soluble
MAHHHHHHMGTTASTDSADSPFSVRSVDSSGGGGWRQEDPERFRKYMHLKSQADQWRQRHGHTPGATRGELTKNLIEEVYEEDFESVDHVQSMRLPPMVLKEMKDAVANEAERRCAETEKVMARCLQDKMWTSWKCQKERDALYQCVADRKEDNELLMAYRWKYNLGTFHGELIGRNNMMRRIWKEHFPDRDLPHPWVKDA | not soluble
MEEEAAVEKPISLNQQRMNGVVAALKQSNARRVIDLGCGQGNLLKILLKDSFFEQITGVDVSYRSLEIAQERLDRLRLPRNQWERLQLIQGALTYQDKRFHGYDAATVIEVIEHLDLSRLGAFERVLFEFAQPKIVIVTTPNIEYNVKFANLPAGKLRHKDHRFEWTRSQFQNWANKITERFAYNVQFQPIGEADPEVGSPTQMAVFIHRGHHHHHH | soluble
MALLTKVTWNNIGMHQPQTNWYKGVWFPYSTPKYSFLLWLTIQNRLSTGDHIKAWNSGQQVTCTLCGNAEETRNLLFFSCHYTSEVWRTLTQRLLSNDYSRDWNRLLPLLCNTNMPTDLLFLFRYVFQASVYHIWRERNARRHGEISSPPNRLIKFIDKNVRNRINSIRDTGDHNYNACLQLWFSTRPLSSTHSL | soluble
MLTPRFDIQPAVSVILPTFDRAPLLASAIESVVAQNFAEWELIVVDDGSSDETFEIVDGYLNQHANIRYMKHRNRKAALSRNAGIQAAFGRYITFLDSDDLYLPEHLESRLHLLESMPEVRLISGGFVCEGDPWVRDRDDPEKLIHVSECIAGATMFGRRELFLDIGGFRALDYAEDTDLWERAARSHKVLKIDQPVSYIYRRSPGSITRTYKPAKPLEHHHHHH | soluble
MSLDLEYTPEQQQLRAEIRATLQTVMTPERVAAVSEQMDGGPAVRECVRALAAANLLGVGWPKEYGGRGFSAIEQFIFAEEARRVSAPIPLVTLNTAGPTLMHYGTDEQKRRFLPAILDGTVEFAIGYSEPGAGSDLASVHTTAVRVGDEYVINGQKMFTSGAAYADYIWLAVRTDPDAKKHKGISILIVPTSSPGFSWQPLHTMPGISTFYTFYDDVRVPVSALVGAENQGWQLITTQLNFERAALGNLGALEPLFDKTLDWALSTELDGGRVIDQPWVRSALARVEAQVAAYKLVNLRVNAAMTKGALNMGEASAAKVFGTELTQQVARELLEVLDGNGVRRGAEAPLRGALESAYRQAVINTFGGGANEIQRDIIAMAALGMPRAEGHHHHHH | not soluble
MGGWMSCAPPIYTPHTNSWTESGWDRTSWWRWSAQRWSGWSFKIVRANKALRVMAKTKMPLVLIPPSPNKPYSKLAINQELHLTPHKKTSPATSSSLKPRPGPRGYLNARLSWRCPTLSRKVRVPTIKVPMVRAPSTKPSKTSSSNNPWPLTPRMRG | soluble
EWALFLDIDGTLVDIAEQPHDVRVAASLPQDLARLADRLGGALALVTGRRVDWIDAHFGPHLFPAAGLHGVERRRASGELDRAGLAPSLNALRKDLGRRTARMPGVLLEDKVAAVALHYRQAPEREPDVRAMMEMALKVMGDGWVLQHGKMVVELRPASANKGTALEAFLTEPPFAGRRPVAIGDDVTDEEMFRVVNACGGLSVRICETEAPTLARARLASPQALRDLVAELGA | not soluble
MSRDGSVAPKERINIRYVPATGDTQEDVELPLSMMVVGDFTARADETPIEERTPINIDKDNFNDVLEGMSPNVKVNVENRLSDEEGAQIGVDLTFQNMKDFSPEAIAKSVPELNSLLELREALVALKGPLGNVPAFRKKIASVLQDEEARKKLLDELSIGNDQDAKEE | soluble
SLSPPVVMSRMFGAQLFNGTSADSGATVGFNPDYILNPGDSIQVRLWGAFTFDGALQVDPKGNIFLPNVGPVKVAGVSNSQLNALVTSKVKEVYQSNVNVYASLLQAQPVKVYVTGFVRNPGLYGGVTSDSLLNYLIKAGGVDPERGSYVDIVVKRGNRVRSNVNLYDFLLNGKLGLSQFADGDTIIVGPRQHTFSVQGDVFNSYDFEFRESSIPVTEALSWARPKPGATHITIMRKQGLQKRSEYYPISSAPGRMLQNGDTLIVSTDRYAGTIQVRVEGAHSGEHAMVLPYGSTMRAVLEKVRPNSMSQMNAVQLYRPSVAQRQKEMLNLSLQKLEEASLSAQSSTKEEASLRMQEAQLISRFVAKARTVVPKGEVILNESNIDSVLLEDGDVINIPEKTSLVMVHGEVLFPNAVSWQKGMTTEDYIEKCGGLTQKSGNARIIVIRQNGAAVNAEDVDSLKPGDEIMVLPKYESKNIEVTRGISTILYQLAVGAKVILSL | soluble
MSASESDLAIVAEQLGREPRGVIEVSYHTPDGVPGVVMTTPKLDDGTPFPTLYYLTEPRLTAEASRLEVAHVMKWMTDRLHSDEELRQDYERAHEYFLAKRNALEDLGTDFSGGGMPDRVKCLHVLIAYALAEGPDHFRLGTEAVALAADHGGLRGTAIPQDWPTVESLGMSLDQFDFSHADVPGASK | not soluble
MKIAYLGPKGSFSHHVVQTAFPHEELQAFANITDVIKAYEQGLVNYSVVPVENSIEGSVHETLDYLFHQAHIQAVAEIVQPIHQQLMVVPGHTKIEKIFSHPQALAQGKKFIDEQYPEAQIEVTASTAYAARFISEHPDQPFAAVAPRSSAEEYGLELIAEDIQEMEANFTRFWVLGAEKPSIPLQAQTEKMSLALTLPDNLPGALYKALSTFAWRGIDLTKIESCPLKTALGEYFFIIDVDYTDKDLVHFAQKELEAIGIQYKILGAYPIYPISDHGKERR | soluble
MGSDKIHHHHHHMLLTIDDVLTQEELAIARSMLARSAWVSGLVTAGTQAAQVKNNQQVQENDPQIVNLRRLVLGALNRNALFFTATLPEKIVPPFFNRYSGETNHYGFHVDNAMRLLPDGSGYVRTDVSATLFLSDPQEYDGGELVINDTFGQHGVKLQAGSMVIYPSSSIHQVTPVTRGERLACFMFIQSMVRNPDQRRLLYEMDMALLQLRQNIGETPAVVSLTGTYHNLLRQWADS | not soluble
SNAMIIADNIKQFHSIRNSLIKQQKIGFVPTMGALHNGHISLIKKAKSENDVVIVSIFVNPTQFNNPNDYQTYPNQLQQDIQILASLDVDVLFNPSEKDIYPDGNLLRIEPKLEIANILEGKSRPGHFSGMLTVVLKLLQITKPNNLYLGEKDYQQVMLIKQLVKDFFINTKIIVCPTQRQPSGLPLSSRNKNLTSTDIEIANKIYEILRQDDFSNLEELTNKINSTGAKLQYIQKLNNRIFLAFYIGKVRLIDNFLKETGPSC | soluble
LPAGLYFVGTPIGSARDITLRALDVLASAEVIAAEDTRSLRHLLDIHGVPLDGRRVLAYHDHSGAGAQARLLEALAEGKSVAYASEAGMPLIADPGFELSRAAAEAGHMVTCAPGPS | not soluble
MAHHHHHHMRGEHELVIPGEQRRDWCSTDACENRLCRKKFSLLVSKQHCQWCGRIFCDNCAPCTATYGGRRLRRCNSCKFPAVFRSLRNLRTGKRDGSVARLIMSFLDSRSINALMHSCYTSLSEFNVGDYVYYESITDRFPTFFEGAMIGKGGFGSVYKCEDRSYPCRRRVALKVITKASVVTYRSWKKIVTELEIMQDVDHHNVAKLLEVLQTPHHLVIVMEAGDGGSLMQAWRLAKEYKYDVEVLVANVVLQVAEGLDYLYHKKGIVHRDIKLENIVLSHDFKRVMIIDFGLAEYVKQCETQLFVPCGTAGYTSPENIRAVVERRRVYEALGETMHLADMYSLGVVAYVLLCGHMPVATRCFSSLYQNMLKGIRCVGPHWANVSDDAKSLVESLVKTNSFERATVAVIREHPFIQAKAPLIVEIVQRHMHKQTETERREVKEWVYVEPLSDHWDMIEVETVSDEENRGLALRKGSSTFGRVGFMNRLKSVVWD | not soluble
